From patent US20180118803A1 (Memorial Sloan Kettering, published 2018)
Each block holds one binder with its values, some of them ahead of it.

Assays:
[1] = molecular target: T1, GPRC5D peptide stretch 5CIESTGDYFLLCD17 (N-term) (human); experiment: Pepscan ELISA on peptide arrays, high stringency, 1 ug/ml
T1 construct: This is a stretch deduced from array peptides that contain it
T1 peptide: CIESTGDYFLLCD
Description: (§1) ELISA Screening—The binding of antibody to each of the synthesized peptides was tested in a PEPSCAN-based ELISA. The peptide arrays were incubated with primary antibody solution (overnight at 4° C.). After washing, the peptide arrays were incubated with a 1/1000 dilution of an appropriate antibody peroxidase conjugate (SBA) for one hour at 25° C. After washing, the peroxidase substrate 2,2′-azino-di-3-ethylbenzthiazoline sulfonate (ABTS) and 2 μl/ml of 3 percent H₂O₂ were added. After one hour, the color development was measured. The color development was quantified with a charge coupled device (CCD)—camera and an image processing system.

[2] = molecular target: T2, GPRC5D peptide stretch 15LCDAEGPWG23 (N-term) (human); experiment: Pepscan ELISA on peptide arrays, high stringency, 3 ug/ml
T2 construct: This is a stretch deduced from array peptides that contain it
T2 peptide: LCDAEGPWG
Description: as §1

[3] = molecular target: T3, GPRC5D peptides containing sequence 230QFQRQPQWDDPVVC243 (ECL3) (human); experiment: Pepscan ELISA, set 1 (linear) compared with set 4 (loop), high stringency, 3 ug/ml
T3 construct: This is a stretch deduced from array peptides that contain it
T3 peptide: QFQRQPQWDDPVVC

[4] = molecular target: T4, GPRC5D peptide stretch 16CDAEGPWGII25 (N-term) (human); experiment: Pepscan ELISA on peptide arrays, moderate stringency, 1 ug/ml
T4 construct: This is a stretch deduced from array peptides that contain it
T4 peptide: CDAEGPWGII
Description: as §1

[5] = molecular target: T5, GPRC5D peptide stretch 229PQFQRQPQW237 (ECL3) (human); experiment: as above
T5 construct: This is a stretch deduced from array peptides that contain it
T5 peptide: PQFQRQPQW
Description: as §1

binding result [1]: binds
B1: ET150-5 mIgG1 (antibody, V domains shown)
VH: EVQLVESGGGLVKPGGSLRLSCAASGFTFSDYYMSWIRQAPGKGLEWVSYISSSGSTIYYADSVKGRFTISRDNAKNSLYLQMNSLRAEDTAVYYCARGYGKAYDQWGQGTLVTVSS
VL: QSVLTQPPSASGTPGQRVTISCSGSRSNVGGNYVFWYQQVPGATPKLLIYRSNQRPSGVPDRFAGSKSGSSASLAISGLRSEDEADYYCATWDDSLSGFVFGTGTKVTVLG
notes: also called ET150-155

binding result [2]: binds
binding result [3]: binds
B2: ET150-8 mIgG1 (antibody, V domains shown)
VH: QVQLVESGGGLVHPGGSLRLSCAASGFTFRSHSMNWVRQAPGKGLEWVSSISSDSTYTYYADSVKGRFTISRDNAKNSLYLQMNSLRAEDTAVYYCARSGGQWKYYDYWGQGTLVTVSS
VL: SSELTQDPAVSVALGQTVRITCQGDSLRSYYASWYQQKPGQAPVLVIYGKNNRPSGIPDRFSGSSSGNTASLTITGAQAEDEADYYCNSRDSSGNPPVVFGGGTKLTVLG
notes: also called ET150-158

binding result [4]: binds
binding result [5]: binds
B3: ET150-2 mIgG1 (antibody, V domains shown)
VH: QMQLVQSGAEVKKPGASVKVSCKASGYTFNRYAITWVRQAPGQGLEWMGWISAYNGNSHYAQKLQGRVTMTTDTSTGTAYMELRRLRSDDTAVYYCARMAYDSWGQGTLVTVSS
VL: QSVLTQPASVSGSPGQSLTISCTGTSNDVGAYKYVSWYQQYPGKAPKLILYDVFKRPSGVSNRFSGSKSDNTASLTISGLQAEDEADYYCFSLTSSNTYVFGTGTKVTVLG
notes: also called ET150-152
